Measured values published in the Immune Epitope Database (IEDB).

Key:
HLA-A*02:02 = test: IEDB peptide-MHC binding, cellular MHC/competitive/fluorescence; ≥ and ≤ were set here for values at or beyond the usual limits of such assays
HLA-A*68:02 [1] = test: as above
HLA-A*02:01 [2] = test: IEDB peptide-MHC binding, purified MHC/competitive/radioactivity; ≥ and ≤ were set here for values at or beyond the usual limits of such assays; conditions: source organism: Vaccinia virus WR
HLA-A*02:06 = test: as above
HLA-A*02:03 = test: as above
HLA-A*02:01 [3] = test: IEDB peptide-MHC binding, cellular MHC/competitive/fluorescence; ≥ and ≤ were set here for values at or beyond the usual limits of such assays
HLA-A*68:02 [4] = test: IEDB peptide-MHC binding, purified MHC/competitive/radioactivity; ≥ and ≤ were set here for values at or beyond the usual limits of such assays
[5] = source organism: Vaccinia virus WR
[6] = source organism: Mammarenavirus lassaense
[7] = source organism: Influenza A virus

Sequence	IC50 (HLA-A*02:02; [5])	IC50 (HLA-A*68:02 [1]; [5])	IC50 (HLA-A*02:01 [2])	IC50 (HLA-A*02:06; [5])	IC50 (HLA-A*02:03; [5])	IC50 (HLA-A*02:01 [3]; [5])	IC50 (HLA-A*68:02 [4]; [5])	other results
VTLNRIKIA	13.3 µM	26.3 µM	1.1 µM	0.625 µM	0.407 µM			
FIISTLNKIL	5.08 µM	11.7 µM	0.17 µM	0.0081 µM	0.0018 µM			
CALVSDCAST	6.41 µM	52.9 µM	0.149 µM	2.6 µM	0.146 µM			
NINIEVKLFI	12.5 µM	7.44 µM	1.17 µM	2.32 µM	2.05 µM			
GAAITLVVI	6.45 µM	7.26 µM	1.08 µM	2.95 µM	3.28 µM			
YASLTTIGTI	6.29 µM			0.084 µM	0.398 µM	8.42 µM	0.133 µM	
MSIQLINKAV								IC50 (HLA-A*02:02; [6]): 11.4 µM; IC50 (HLA-A*02:01 [3]; [6]): 7.21 µM; IC50 (HLA-A*02:06; [6]): 0.619 µM; IC50 (HLA-A*02:03; [6]): 1.8 µM; IC50 (HLA-A*68:02 [4]; [6]): 0.011 µM
ITLVVISVI	15.1 µM	6.03 µM	0.551 µM	1.03 µM	1.81 µM			
YIWIKNLET	12.6 µM	32 µM		0.347 µM	1.18 µM			
VQLPKRGVRV	33.7 µM	55.7 µM	1.64 µM	0.041 µM	2.21 µM			
DLTALLSCI	5.2 µM			4.88 µM	0.996 µM	13.5 µM	1.78 µM	
STVDVRNIV	6.33 µM			1.63 µM	3.48 µM	8.07 µM	0.018 µM	
VILKDPRIA	10.6 µM	37.9 µM	0.697 µM	0.318 µM	0.603 µM			
NVTYNIKPV	22.8 µM			0.855 µM	0.153 µM	6.36 µM	0.376 µM	
VIDRLPSET	7.08 µM	8.57 µM	3.5 µM	3.67 µM	0.742 µM			
LVQYRILPMI	12.5 µM	12.5 µM	2.54 µM	0.712 µM	1.2 µM			
CTIVDSMII	13.9 µM			4.58 µM	1.79 µM	5.16 µM	3.08 µM	
VQLSNNKYV	7.34 µM	≥ 70 µM	1.82 µM	0.214 µM	0.541 µM			
SLCPIRGWAI								IC50 (HLA-A*02:02; [7]): 5.52 µM; IC50 (HLA-A*68:02 [1]; [7]): 16.2 µM
SASDMQKFTI	10.8 µM			4.25 µM	1.22 µM	13.5 µM	0.487 µM	
ITPTIEDDKI	18.7 µM			1.5 µM	4.2 µM	18.8 µM	2.19 µM	
HTNHSDISM	8.81 µM			1.2 µM	4.14 µM	12.1 µM	0.026 µM	
MAAAKTPVIV	6.01 µM			3.63 µM	0.156 µM	8.47 µM	1.21 µM	
DLLLPSTDV	15.1 µM	13.3 µM	1.48 µM	1.06 µM	3.9 µM			
KLVETGFVI	13.2 µM			0.2 µM	1.07 µM	14.3 µM	1.05 µM	
STIANSNII	6.12 µM			1.24 µM	1.47 µM	12.7 µM	0.035 µM	
VLEKKVCAI	14.4 µM	45.4 µM	1.37 µM	3.39 µM	2.31 µM			
RTIDAINKCV	10.8 µM			0.341 µM	0.334 µM	25 µM	0.289 µM	
NVMGMIGI								IC50 (HLA-A*02:02; [7]): 5.92 µM; IC50 (HLA-A*02:01 [3]; [7]): 14.5 µM; IC50 (HLA-A*02:06; [7]): 2.06 µM; IC50 (HLA-A*02:03; [7]): 4.81 µM; IC50 (HLA-A*68:02 [4]; [7]): 0.187 µM
STFNMWREI	5.82 µM			0.095 µM	0.713 µM	5.67 µM	0.02 µM	
